In publication PMC3377380 (Molecular Membrane Biology, 2012):

T1: GST-Obsc_(6316–6345) (Rattus norvegicus)
T1 chain: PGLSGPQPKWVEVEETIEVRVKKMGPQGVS


Columns and labels:
GST-Obsc_(6316–6345) = target: T1, GST-Obsc_(6316–6345); test: SPR
GST-Obsc_(6231–6260) = GST-Obsc_(6231–6260) (Rattus norvegicus); test: SPR

fold decrease in kon against wild type (GST-Obsc_(6231–6260)) [fold] | Binder | also measured
 | sAnk1-MBP I102A (domain or fragment) VKGSLCFVLKHIHQELDKELGESEGLSDDEETISTRVVRRRVFLKGDELQNIPGEQVTEEQFTDEQGNIVTKKAIRKVVRQVDSSGAIDTQQHEEVELRGSGLQPDLIEGRKGAQIVKRASLKRGKQ | fold reduction in kon against wild type (GST-Obsc_(6316–6345)): ~3 fold
 | sAnk1-MBP (wild type, sAnk1 residues 29–155) (domain or fragment) VKGSLCFVLKHIHQELDKELGESEGLSDDEETISTRVVRRRVFLKGDELQNIPGEQVTEEQFTDEQGNIVTKKIIRKVVRQVDSSGAIDTQQHEEVELRGSGLQPDLIEGRKGAQIVKRASLKRGKQ | Kd (GST-Obsc_(6316–6345)): ~130 nM
~2 | sAnk1-MBP F71A (domain or fragment) VKGSLCFVLKHIHQELDKELGESEGLSDDEETISTRVVRRRVALKGDELQNIPGEQVTEEQFTDEQGNIVTKKIIRKVVRQVDSSGAIDTQQHEEVELRGSGLQPDLIEGRKGAQIVKRASLKRGKQ | 
~2 | sAnk1-MBP I103A (domain or fragment) VKGSLCFVLKHIHQELDKELGESEGLSDDEETISTRVVRRRVFLKGDELQNIPGEQVTEEQFTDEQGNIVTKKIARKVVRQVDSSGAIDTQQHEEVELRGSGLQPDLIEGRKGAQIVKRASLKRGKQ | 
